This assay deals with Met receptor on MK keratinocytes (mouse) (UniProt P16056). Briefly: cell-based or functional assay.

“InIB full length (from UniProt P0DQD2 31-630) (ligand)” returned a stimulation of DNA synthesis in MK keratinocytes, lowest active concentration of 100 pM.

These data come from patent EP2138508A1.
